B1: SEQ ID NO: 59: full-length mutant of isoform 3 of the mouse 6OST enzyme, SEQ ID NO: 18 mutations (protein)
chain: MDERFNKWLLTPVLTLLFVVIMYQYVSPSCTSSCTNFGEQLRSGEARPPAVPSPARRAQAPLDEWERRPQLPPPPRGPPEGSRGVAAPEDEDEDPGDPEEEEEEEEEEPDPEAPENGSLPRFVPRFNFTLKDLTRFVDFNIKGRDVIVFLHIGHTGGTTFGRHLVKNIRLEQPCSCKAGQKKCTCHRPGKKETWLFSRFSTGWSCGTNADWTELTNCVPAIMEKKDCPRNHSHTRNFYYITMLRDPVSRYLGGWKHHQRGGTNKTSLHMCDGRSPTPDELPTCYPGDDWSGVSLREFMDCSYNLANNRQVRMLADLSLVGCYNLTFMNESERNTILLQSAKNNLKNMAFFGLTEFQRKTQFLFERTFNLKFISPFTQVNITRASNVDINDGARQHIEELNFLDMQLYEYAKDLFQQRYHHTKQLEHQRDRQKRREERRLQREHRAHRWPKEDRAMEGTVTEDYNSQVVRW
modifications: Amino acid sequence encoding for engineered arylsulfate-dependent 6-O-sulfotransferase variant 12
B2: SEQ ID NO: 61: full-length mutant of isoform 3 of the mouse 6OST enzyme, SEQ ID NO: 22 mutations (protein)
chain: B1 chain with T207S, N208H, G252S, T262A, A305G, V378F
modifications: Amino acid sequence encoding for engineered arylsulfate-dependent 6-O-sulfotransferase variant 13
B3: SEQ ID NO: 60: full-length mutant of isoform 3 of the mouse 6OST enzyme, SEQ ID NO: 20 mutations (protein)
chain: B1 chain with N208R, G252S, G253H, H257T, T262A, S266G, A305G, V378F
modifications: Amino acid sequence encoding for engineered arylsulfate-dependent 6-O-sulfotransferase variant 13

Residue numbers refer to the chain shown, from its start.

The assay in a line: 6OST activity: 6-O sulfated products detected by LCMS after lyase digestion. Type of assay: biochemical. To be noted: procedures of Example 4; expected. How it is done:
A study was conducted in accordance with embodiments of the present disclosure to confirm 6OST activity of enzymes comprising the amino acid sequence of SEQ ID NO: 18, SEQ ID NO: 20, or SEQ ID NO: 22 by detecting the presence of 6-O sulfated polysaccharide products as a result of their sulfotransfer reaction, using a similar LCMS procedure as in Example 3, except that the sulfo acceptor polysaccharide was prepared by chemically 6-O desulfating commercially available heparin (CAS code: 9041-08-1, available from Millipore Sigma), according to the procedure provided by Kariya, Y., et al., (2000) J. Biol. Chem. 275 (34):25949-25958).
Consider B1, for which the “6OST activity: N,2,6-HS products by MS” value is on record as “confirm the presence of N,2,6-HS products”.

As for B2, the “6OST activity: N,2,6-HS products by MS” value is on record as “confirm the presence of N,2,6-HS products”.

Take B3: the “6OST activity: N,2,6-HS products by MS” value was “confirm the presence of N,2,6-HS products”.
